These results are taken from US20250122306A1 (SUTRO BIOPHARMA, published 2025).

Where a chain is given by its changes, count along the chain named.

B1: mAb 46: aTF_2900-H09_HC_Y180/F404TAG_SerOpt; Trastuzumab LC SerOpt (antibody, human IgG1, kappa, V domains shown)
VH: EVQLVESGGGLVQPGGSLRLSCAASGFTISDYVIHWVRQAPGKGLEWVGYIDPSNGYTYYADSVKGRFTISADTSKNTAYLQMNSLRAEDTAVYYCARDDQSISSPLDYWGQGTLVTVSS
VL: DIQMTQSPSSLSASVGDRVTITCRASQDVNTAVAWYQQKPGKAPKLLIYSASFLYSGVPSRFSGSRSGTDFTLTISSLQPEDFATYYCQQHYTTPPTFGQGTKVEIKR
modifications: non-natural amino acid (pAMF) at TAG sites Y180 and F404 (EU), * in the sequence
notes: unconjugated full-length IgG1/kappa
B2: SRP2900-A02 (antibody, IgG1, V domains shown)
VH: MEVQLVESGGGLVQPGGSLRLSCAASGFTISGYIIHWVRQAPGKGLEWVGYIDPSNGYTYYADSVKGRFTISADTSKNTAYLQMNSLRAEDTAVYYCARDDQSLSSPFDYWGQGTLVTVSS
VL: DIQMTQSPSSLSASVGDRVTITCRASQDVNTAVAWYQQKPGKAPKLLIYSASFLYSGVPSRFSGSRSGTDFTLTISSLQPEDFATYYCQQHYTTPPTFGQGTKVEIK
B3: SRP2900-F08 (antibody, IgG1, V domains shown)
VH: B1 VH with S30A, D31Y, V33I, I103L, L107F
VL: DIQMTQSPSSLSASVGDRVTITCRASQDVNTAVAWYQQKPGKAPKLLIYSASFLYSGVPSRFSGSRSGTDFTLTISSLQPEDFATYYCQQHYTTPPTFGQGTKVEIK
B4: SRP2900-E02 (antibody, IgG1, V domains shown)
VH: B1 VH with S63P, D100P, I103F, S104Y, S105I, P106A, L107F
VL: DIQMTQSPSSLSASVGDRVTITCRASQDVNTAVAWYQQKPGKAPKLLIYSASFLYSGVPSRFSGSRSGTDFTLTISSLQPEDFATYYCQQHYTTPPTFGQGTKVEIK
B5: SRP2900-E07 (antibody, IgG1, V domains shown)
VH: B1 VH with D31Q, V33W, S54Y, D100Y, Q101G, I103L, S104R, S105V, P106S
VL: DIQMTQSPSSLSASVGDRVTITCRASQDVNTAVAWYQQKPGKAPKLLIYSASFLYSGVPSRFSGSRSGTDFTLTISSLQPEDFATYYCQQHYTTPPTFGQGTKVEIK
B6: SRP2900-H06 (antibody, IgG1, V domains shown)
VH: B1 VH with S30A, D31A, V33I, I103F, L107F
VL: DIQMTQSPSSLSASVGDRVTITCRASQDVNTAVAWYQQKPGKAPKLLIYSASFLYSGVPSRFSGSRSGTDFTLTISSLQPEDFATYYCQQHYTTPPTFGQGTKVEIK
B7: SRP2900-H09 (antibody, IgG1, V domains shown)
VH: B1 VH
VL: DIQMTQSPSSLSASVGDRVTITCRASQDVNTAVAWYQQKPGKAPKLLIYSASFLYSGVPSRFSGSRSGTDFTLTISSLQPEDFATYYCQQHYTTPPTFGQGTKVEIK
B8: SRP2900-E06 (antibody, IgG1, V domains shown)
VH: B1 VH with D31G, V33I, Y60H, I103V, L107F
VL: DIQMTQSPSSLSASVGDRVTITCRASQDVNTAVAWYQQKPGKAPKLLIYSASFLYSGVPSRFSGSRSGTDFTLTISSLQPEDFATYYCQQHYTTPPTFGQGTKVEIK
B9: SRP2900-H07 (antibody, IgG1, V domains shown)
VH: B1 VH with T28N, S30A, D31Y, V33T, D100P, I103F, L107F
VL: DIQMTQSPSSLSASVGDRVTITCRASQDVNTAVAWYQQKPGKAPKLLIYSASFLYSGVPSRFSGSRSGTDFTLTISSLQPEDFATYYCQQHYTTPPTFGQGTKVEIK
B10: SRP2900-G03 (antibody, IgG1, V domains shown)
VH: B1 VH with S30N, D31N, V33I, D100P, I103L, L107F
VL: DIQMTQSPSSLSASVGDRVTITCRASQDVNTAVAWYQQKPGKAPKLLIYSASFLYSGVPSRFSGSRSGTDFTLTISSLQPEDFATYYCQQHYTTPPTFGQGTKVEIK
B11: SRP2900-H11 (antibody, IgG1, V domains shown)
VH: B1 VH with D31S, V33I, L45P, D100P, S102T, I103L, S104T, L107F
VL: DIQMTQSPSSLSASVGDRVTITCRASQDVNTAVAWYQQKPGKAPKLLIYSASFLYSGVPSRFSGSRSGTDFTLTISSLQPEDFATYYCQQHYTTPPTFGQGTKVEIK
B12: SRP2900-G05 (antibody, IgG1, V domains shown)
VH: B1 VH with S17L, S30A, D31Y, I103L, L107F
VL: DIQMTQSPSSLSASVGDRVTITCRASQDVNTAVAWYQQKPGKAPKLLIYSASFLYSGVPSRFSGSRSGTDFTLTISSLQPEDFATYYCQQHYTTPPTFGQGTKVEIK
B13: SRP2900-C11 (antibody, IgG1, V domains shown)
VH: B1 VH with D31Q, V33W, S54Y, D100Y, Q101G, I103W, S104R, S105I, P106R
VL: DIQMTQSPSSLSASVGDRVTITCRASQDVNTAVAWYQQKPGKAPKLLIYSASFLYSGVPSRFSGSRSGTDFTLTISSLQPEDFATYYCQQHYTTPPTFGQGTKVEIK
B14: SRP2900-F09 (antibody, IgG1, V domains shown)
VH: B1 VH with S30H
VL: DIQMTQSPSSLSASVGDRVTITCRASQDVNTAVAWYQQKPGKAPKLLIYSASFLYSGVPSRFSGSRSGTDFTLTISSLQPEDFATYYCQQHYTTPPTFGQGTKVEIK
B15: SRP2900-G02 (antibody, IgG1, V domains shown)
VH: B1 VH with G10D, Q13R, D31Y, V33I, I103V, L107F, D108E
VL: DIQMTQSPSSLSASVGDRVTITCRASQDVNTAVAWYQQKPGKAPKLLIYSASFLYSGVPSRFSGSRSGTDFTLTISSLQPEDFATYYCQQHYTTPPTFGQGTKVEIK
B16: SRP2900-F11 (antibody, IgG1, V domains shown)
VH: B1 VH with D31G, V33I, Y59F, Q82R, I103L, L107F
VL: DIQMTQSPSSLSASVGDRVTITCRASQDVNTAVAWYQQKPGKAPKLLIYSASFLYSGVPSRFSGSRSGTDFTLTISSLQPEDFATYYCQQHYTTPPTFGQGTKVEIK
B17: SRP2900-F06 (antibody, IgG1, V domains shown)
VH: B1 VH with D31I, V33T, F68L, D100P, L107F
VL: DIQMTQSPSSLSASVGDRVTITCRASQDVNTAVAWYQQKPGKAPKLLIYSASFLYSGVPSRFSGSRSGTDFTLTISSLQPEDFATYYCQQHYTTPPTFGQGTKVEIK
B18: SRP2900-F02 (antibody, IgG1, V domains shown)
VH: B1 VH with S21A, S30G, D31V, V33I, I103V, L107F
VL: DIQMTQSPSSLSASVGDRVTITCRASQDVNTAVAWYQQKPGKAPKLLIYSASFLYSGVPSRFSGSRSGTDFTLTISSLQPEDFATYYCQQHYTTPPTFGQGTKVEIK
B19: SRP2900-C01 (antibody, IgG1, V domains shown)
VH: EVQLVESGGGLVQPGGSLRLSCAASGFTIGSYWIHWVRQAPGKGLEWVGYIDPSNGYTYYADSVKGRFTISADTSKNTAYLQMNSLRAEDTAVYYCARADYYYVDEYWDYWGQGTLVTVSS
VL: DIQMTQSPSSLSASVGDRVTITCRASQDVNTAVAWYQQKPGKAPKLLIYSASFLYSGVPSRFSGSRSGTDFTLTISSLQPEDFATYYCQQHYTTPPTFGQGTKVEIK

The first test concerns the target T1, cynomolgus tissue factor on HEK293T-cynoTF cells (cynomolgus monkey, UniProt P13726 33-294 (human entry)).
T1 construct: stably transfected HEK293T cells
T1 chain: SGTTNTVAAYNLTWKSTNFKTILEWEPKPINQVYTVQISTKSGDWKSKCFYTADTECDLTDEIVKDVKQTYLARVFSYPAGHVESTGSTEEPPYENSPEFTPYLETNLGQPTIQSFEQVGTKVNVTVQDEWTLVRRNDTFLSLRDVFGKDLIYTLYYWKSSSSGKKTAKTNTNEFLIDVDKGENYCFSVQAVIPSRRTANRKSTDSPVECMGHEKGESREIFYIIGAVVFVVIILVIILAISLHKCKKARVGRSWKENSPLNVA
The test is described as follows: flow cytometry on HEK293T-cynoTF cells, one-site fit of MFI. From the text: (§1) HEK293T, BxPC3 cells (TF positive) and NCI-H1703 (TF negative) cells were obtained from ATCC (American Type Culture Collection) and maintained in DMEM: F12 (1:1), high glucose (Corning) supplemented with 10% heat-inactivated fetal bovine serum (ThermoScientific), 1× Penicillin/Streptomycin (Corning) and 2 mmol glutamax (Thermo Fisher Scientific). To generate cells that stably expressing human tissue factor (HEK293T-humanTF) or cynomolgus tissue factor (HEK293T-cynoTF), HEK293T cells were transfected with plasmid vectors that contain the corresponding protein sequence and stable clones were selected with puromycin.
(§2) For a fluorescence-activated cell sorting (FACS) cell-binding assay, cells were collected by Accutase and counted by the Vi-CELL Cell Viability Analyzersharvested and, then re-suspended in FACS buffer (DPBS buffer supplemented with 1% bovine serum albumin). A total of 200,000 cells in 100 μL were incubated on ice with 100 μL of anti-TF antibodies in each well of a 96-well plate. Cells were washed twice with ice-cold FACS buffer and then incubated on ice for 60 mins with 5 μg/mL Alexa 647-labeled donkey anti-human Fc antibody (Jackson ImmunoResearch). Unstained cells and cells stained with secondary antibody alone were used as controls. Cells were washed twice with FACS buffer and analyzed using a BD FACS Canto system. Geometric mean fluorescence intensities (MFI) were fitted using non-linear regression analysis with one site specific binding equation on GraphPad Prism (GraphPad Software; La Jolla, CA).
On the technique in general: A flow cytometer gives signals particle by particle.
As to B1, the “Bmax (MFI)” value is 483000 MFI and the affinity, expressed as Kd, was 38 nM.

The target of another test is T2, human tissue factor (human TF, Lake Pharma) (human, UniProt P13726 33-251, limits assumed).
T2 construct: bought recombinant antigen; also called CD142
The test is described as follows: Biacore SPR, single-point off-rate (100 nM antigen), antibody captured on anti-Fc. The method, then: (§3) Anti-Fc polyclonal antibodies were immobilized onto a CM4 chip (Cytiva #BR100534) using amine coupling chemistry (Human Antibody Capture Kit, Cytiva #BR100839). The immobilization steps were carried out at a flow rate of 25 μL/min in 1×HBS-EP+buffer (Cytiva #BR100669). The sensor surfaces were activated for 7 min with a mixture of N-hydroxysuccinimide (NHS, 0.05 M) and 1-ethyl-3-(3-dimethylaminopropyl)-carbodiimide (EDC, 0.2 M). The anti-Fc polyclonal antibodies were injected over all 4 flow cells at a concentration of 25 μg/mL in 10 mM sodium acetate, pH 4.5, for 7 min. Ethanolamine (1 M, pH 8.5) was injected for 7 min to block any remaining activated groups.
(§4) Off-rate and kinetic binding experiments were performed at 25° C. using 1×HBS-EP+buffer. Antibodies were injected over the anti-Fc surface at a concentration of 3 μg/mL for 12 seconds at a flow rate of 10 μL/min on flow cells 2, 3 and 4, followed by a buffer wash for 30 seconds at the same flow rate. Single point off-rate analysis was carried out using an antigen concentration of 100 nM. […] After capturing ligand (antibody) on the anti-Fc surface, the analyte (human TF, Lake Pharma; cynomolgus TF, Sino Bio #90885-C08H; mouse TF, R&D Systems #3178-PA) was bound for 180 seconds, followed by a 420 second dissociation phase at a flow rate of […]. Between each ligand capture and analyte binding cycle, regeneration was carried out using 2 injections of 10 mM glycine pH 2.0 for 30 seconds at 30 μL/min, followed by a 30 second buffer wash step.
(Surface plasmon resonance follows binding to a sensor surface in real time, without labels.)
As to B2, the koff – broadly, the rate constant with which the complex falls apart – was determined as 0.00116 s⁻¹.
Molecule B3 gave a dissociation rate constant (koff) of 0.00131 s⁻¹.
Still for that read-out and setting: in the case of B4 it was 0.000528 s⁻¹; in that of B5, 0.000511 s⁻¹.
Take B6: the koff amounted to 0.00347 s⁻¹. This koff is about 6.8-fold higher than that of the molecule before.
The molecule B7 displayed a koff of 0.00169 s⁻¹.
Same read-out and setting: to B8 belongs 0.000978 s⁻¹; to B9, 0.00205 s⁻¹.
Still for that read-out and setting: to B10 belongs 0.000699 s⁻¹; to B11, 0.0025 s⁻¹; to B12, 0.00115 s⁻¹.
For B13, the koff was 0.000842 s⁻¹.
The same measure, in the same setting: to B14 belongs 0.00139 s⁻¹; to B15, 0.00415 s⁻¹.
In the case of B16, the off-rate constant (koff) is 0.00204 s⁻¹.
Still for that read-out and setting: to B17 belongs 0.00423 s⁻¹.
The same measure, in the same setting: to B18 belongs 0.00274 s⁻¹; to B19, 0.00183 s⁻¹.

In a further test the target is T3, cynomolgus tissue factor (cynomolgus TF, Sino Bio #90885-C08H) (cynomolgus monkey, UniProt P13726 33-251 (human entry)).
T3 construct: bought recombinant antigen; also called cyno TF
T3 chain: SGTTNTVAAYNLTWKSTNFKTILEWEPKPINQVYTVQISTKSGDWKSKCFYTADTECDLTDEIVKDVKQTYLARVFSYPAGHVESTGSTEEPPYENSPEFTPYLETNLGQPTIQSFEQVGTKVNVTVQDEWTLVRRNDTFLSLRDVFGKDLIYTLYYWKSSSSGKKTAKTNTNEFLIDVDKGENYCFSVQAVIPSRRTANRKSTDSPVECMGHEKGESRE
The test is described as above. The method, then:
as §3, §4
With B2, the koff was found to be 0.000761 s⁻¹.
Consider B3, for which the koff is 0.000665 s⁻¹.
B4 displayed a koff of 0.00182 s⁻¹. Compared with the last molecule, the koff is about 2.7-fold higher.
Still for that read-out and setting: to B5 belongs 0.00113 s⁻¹; to B6, 0.000648 s⁻¹; to B7, 0.00584 s⁻¹.
In the case of B8, the off-rate (koff) came out at 0.000689 s⁻¹.
The molecule B9 showed a koff of 0.0013 s⁻¹.
Regarding B10, the koff was determined as 0.00195 s⁻¹.
On the same count and under the same terms, in the case of B11 it was 0.000946 s⁻¹.
The same measure, in the same setting: in the case of B12 it was 0.000667 s⁻¹; in that of B13, 0.00257 s⁻¹; in that of B14, 0.00215 s⁻¹.
Still for that read-out and setting: to B15 belongs 0.00141 s⁻¹.
Turning to B16, the off-rate constant (koff) is 0.00115 s⁻¹.
On the same count and under the same terms, in the case of B17 it was 0.00184 s⁻¹; in that of B18, 0.000696 s⁻¹.
On to B19, for which the koff came out at 0.00118 s⁻¹.

The target of another test is tissue factor reagent of the Tissue Factor Activity Assay Kit (Abcam #ab108906) (UniProt P13726 33-295, limits assumed). The test is described as follows: cell-based or functional assay.
Consider B2, for which the “FX conversion (% inhibition), 1000 nM antibody” value (shortened to “FX conversion (% inhibition)”) is 0.21%.
With B3, the “FX conversion (% inhibition)” value was 9.78%.
The same measure, in the same setting: in the case of B4 it was 17.7%; in that of B5, 15.6%; in that of B6, 4.04%.
Still for that read-out and setting: to B7 belongs 4.48%.
With B8, the “FX conversion (% inhibition)” value was 18.7%.
Still for that read-out and setting: to B9 belongs 13.5%.
The same measure, in the same setting: in the case of B10 it was 20%.
Consider B11, for which the “FX conversion (% inhibition)” value was -3.63%.
Turning to B12, the “FX conversion (% inhibition)” value amounted to 12.1%.
Regarding B13, the “FX conversion (% inhibition)” value came out at 12.4%.
The same measure, in the same setting: to B14 belongs 5.23%; to B15, -0.11%.
Take B16: the “FX conversion (% inhibition)” value was determined as 6.38%.
In the case of B17, the “FX conversion (% inhibition)” value was 1.72%.
The same measure, in the same setting: to B18 belongs 0.23%; to B19, 16.4%.

Another test has as its target T4, human tissue factor on cells (human, UniProt P13726 33-295).
T4 construct: cell-surface TF, transfected (HEK293T-humanTF) or endogenous (tumour lines, keratinocytes); the cell line is named under assay; also called HEK293T-humanTF; TF on BxPC3, primary human keratinocytes, NCI-H292, HCC1954, NCI-H1975
The test is described as follows: flow cytometry on HEK293T-humanTF cells, one-site fit of MFI.
Source text: as §1, §2
Regarding B1, the “Bmax (MFI)” value was found to be 300000 MFI and binding was put at a Kd of 0.93 nM.

Another test addresses T2, human tissue factor (human TF, Lake …). The test is described as follows: Biacore SPR kinetics, antibody captured on anti-Fc, 1:1 Langmuir fit. The method, then: as §3, §4
(§5) The data were fit with the Biacore T200 Evaluation software, using a 1:1 Langmuir binding model. KD (affinity, nM) was determined as a ratio of the kinetic rate constants calculated from the fits of the association and dissociation phases.
Consider B1, for which the dissociation constant (Kd) (usually the free concentration of one partner at which half of the binding sites on the other are occupied at equilibrium, for simple one-to-one binding) came to 6.24 nM; the off-rate constant (koff) came out at 0.00226 s⁻¹; the kon (as a rule, the second-order rate constant of association) stood at 362000 M⁻¹ s⁻¹.

A further test has as its target T3, cynomolgus tissue factor (cynomolgus …). The description is as above. The method, then:
as §3, §4, §5
The molecule B1 gave a Kd of 41.6 nM, a dissociation rate constant (koff) of 0.00681 s⁻¹ and an association rate constant (kon) of 164000 M⁻¹ s⁻¹.
